Results from patent EP4755449A2 (CHUGAI SEIYAKU KABUSHIKI KAISHA, dated 2026).

T1: human Fc gamma RIIb extracellular domain, His-tagged (human, UniProt P31994 43-217)
T1 construct: also called FcgRIIb
T1 sequence: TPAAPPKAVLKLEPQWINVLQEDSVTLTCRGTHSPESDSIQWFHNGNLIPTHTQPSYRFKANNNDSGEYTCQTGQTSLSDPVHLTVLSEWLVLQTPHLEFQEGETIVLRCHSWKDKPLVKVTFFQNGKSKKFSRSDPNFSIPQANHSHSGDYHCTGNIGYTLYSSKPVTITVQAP

T2: cyno Fc gamma RIIb extracellular domain, His-tagged (cynomolgus monkey)
T2 construct: also called cynoFcgRIIb
T2 chain: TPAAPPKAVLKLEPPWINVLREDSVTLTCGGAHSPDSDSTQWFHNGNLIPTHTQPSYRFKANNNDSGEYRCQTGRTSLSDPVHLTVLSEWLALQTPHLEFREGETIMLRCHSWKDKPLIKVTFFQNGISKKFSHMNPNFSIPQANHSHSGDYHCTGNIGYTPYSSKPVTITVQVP

B1: M103205H795-SG1 K334Y/M103202L889-SK1 (antibody, human IgG1, kappa)
heavy: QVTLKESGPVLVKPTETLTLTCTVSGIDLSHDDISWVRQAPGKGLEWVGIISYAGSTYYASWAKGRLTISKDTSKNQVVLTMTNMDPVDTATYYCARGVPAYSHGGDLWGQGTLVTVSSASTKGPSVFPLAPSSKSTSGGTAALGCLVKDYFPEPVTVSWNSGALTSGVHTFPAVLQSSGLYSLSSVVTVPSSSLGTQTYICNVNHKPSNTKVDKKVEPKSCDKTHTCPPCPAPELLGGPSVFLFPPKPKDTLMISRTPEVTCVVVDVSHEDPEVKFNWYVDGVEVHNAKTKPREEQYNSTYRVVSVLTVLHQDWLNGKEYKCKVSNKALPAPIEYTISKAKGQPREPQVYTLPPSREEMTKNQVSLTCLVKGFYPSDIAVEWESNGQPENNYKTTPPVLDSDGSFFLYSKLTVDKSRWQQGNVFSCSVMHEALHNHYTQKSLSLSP
light: DIVMTQSPATLSLSPGERATLSCTSSQSVYHANWLSWFQQKPGQPPKLLIYWASTLAYGVPSRFSGSGSGTDFTLTISSLQPEDAATYYCAGGYGGGRYAFGQGTKVEIKRTVAAPSVFIFPPSDEQLKSGTASVVCLLNNFYPREAKVQWKVDNALQSGNSQESVTEQDSKDSTYSLSSTLTLSKADYEKHKVYACEVTHQGLSSPVTKSFNRGEC
notes: copies: 2 + 2
B2: M103205H795-SG1 P331E/M103202L889-SK1 (antibody, human IgG1, kappa)
heavy: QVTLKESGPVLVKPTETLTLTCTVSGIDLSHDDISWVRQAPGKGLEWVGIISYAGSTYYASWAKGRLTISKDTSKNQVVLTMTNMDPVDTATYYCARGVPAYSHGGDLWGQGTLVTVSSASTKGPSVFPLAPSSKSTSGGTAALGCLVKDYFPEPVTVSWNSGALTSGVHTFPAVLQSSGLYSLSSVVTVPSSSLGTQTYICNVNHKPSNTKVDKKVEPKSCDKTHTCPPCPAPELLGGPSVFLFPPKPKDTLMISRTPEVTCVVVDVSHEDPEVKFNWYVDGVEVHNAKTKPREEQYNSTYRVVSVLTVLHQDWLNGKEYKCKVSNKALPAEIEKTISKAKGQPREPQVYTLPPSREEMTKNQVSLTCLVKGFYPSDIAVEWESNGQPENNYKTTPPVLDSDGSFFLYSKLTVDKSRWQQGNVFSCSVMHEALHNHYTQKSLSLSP
light: DIVMTQSPATLSLSPGERATLSCTSSQSVYHANWLSWFQQKPGQPPKLLIYWASTLAYGVPSRFSGSGSGTDFTLTISSLQPEDAATYYCAGGYGGGRYAFGQGTKVEIKRTVAAPSVFIFPPSDEQLKSGTASVVCLLNNFYPREAKVQWKVDNALQSGNSQESVTEQDSKDSTYSLSSTLTLSKADYEKHKVYACEVTHQGLSSPVTKSFNRGEC
notes: copies: 2 + 2
B3: M103205H795-SG1 P271G/M103202L889-SK1 (antibody, human IgG1, kappa)
heavy: not shown
light: DIVMTQSPATLSLSPGERATLSCTSSQSVYHANWLSWFQQKPGQPPKLLIYWASTLAYGVPSRFSGSGSGTDFTLTISSLQPEDAATYYCAGGYGGGRYAFGQGTKVEIKRTVAAPSVFIFPPSDEQLKSGTASVVCLLNNFYPREAKVQWKVDNALQSGNSQESVTEQDSKDSTYSLSSTLTLSKADYEKHKVYACEVTHQGLSSPVTKSFNRGEC
notes: copies: 2 + 2
B4: M103205H795-SG1 K334M/M103202L889-SK1 (antibody, human IgG1, kappa)
heavy: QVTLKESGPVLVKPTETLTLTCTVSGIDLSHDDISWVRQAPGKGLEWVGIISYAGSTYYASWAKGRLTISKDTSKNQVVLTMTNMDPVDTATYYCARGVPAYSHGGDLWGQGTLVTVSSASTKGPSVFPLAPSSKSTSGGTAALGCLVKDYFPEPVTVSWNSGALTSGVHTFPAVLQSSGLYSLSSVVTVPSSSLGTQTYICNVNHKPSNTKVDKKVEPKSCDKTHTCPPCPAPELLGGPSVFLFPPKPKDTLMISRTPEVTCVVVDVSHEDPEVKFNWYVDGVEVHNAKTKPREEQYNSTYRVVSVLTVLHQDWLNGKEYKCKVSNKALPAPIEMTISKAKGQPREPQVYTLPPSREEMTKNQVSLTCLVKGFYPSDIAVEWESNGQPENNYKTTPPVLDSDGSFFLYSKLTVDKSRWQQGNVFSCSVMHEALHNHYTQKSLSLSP
light: DIVMTQSPATLSLSPGERATLSCTSSQSVYHANWLSWFQQKPGQPPKLLIYWASTLAYGVPSRFSGSGSGTDFTLTISSLQPEDAATYYCAGGYGGGRYAFGQGTKVEIKRTVAAPSVFIFPPSDEQLKSGTASVVCLLNNFYPREAKVQWKVDNALQSGNSQESVTEQDSKDSTYSLSSTLTLSKADYEKHKVYACEVTHQGLSSPVTKSFNRGEC
notes: copies: 2 + 2
B5: MS103205H795-PK2/M103202L889-SK1 (antibody)
heavy: QVTLKESGPVLVKPTETLTLTCTVSGIDLSHDDISWVRQAPGKGLEWVGIISYAGSTYYASWAKGRLTISKDTSKNQVVLTMTNMDPVDTATYYCARGVPAYSHGGDLWGQGTLVTVSSASTKGPSVFPLAPSSKSTSGGTAALGCLVKDYFPEPVTVSWNSGALTSGVHTFPAVLQSSGLYSLSSVVTVPSSSLGTQTYICNVNHKPSNTKVDKKVEPKSCDKTHTCPPCPAPELLNGPSVFLFPPKPKDTLMISRTPEVTCVVVDVSEEDPEVKFNWYVDGVEVHNAKTKPREEQYNSTYRVVSVLTVLHQDWLNGKEYKCKVSNKALPKPIEKTISKAKGQPREPQVYTLPPSREEMTKNQVSLTCLVKGFYPSDIAVEWESNGQPENNYKTTPMVLDRDGSFFLYSKLTVKKSRWQQGNVFSCSVMHEALHNHYTQKSLSLSP
light: DIVMTQSPATLSLSPGERATLSCTSSQSVYHANWLSWFQQKPGQPPKLLIYWASTLAYGVPSRFSGSGSGTDFTLTISSLQPEDAATYYCAGGYGGGRYAFGQGTKVEIKRTVAAPSVFIFPPSDEQLKSGTASVVCLLNNFYPREAKVQWKVDNALQSGNSQESVTEQDSKDSTYSLSSTLTLSKADYEKHKVYACEVTHQGLSSPVTKSFNRGEC
notes: also called MS1032LO06-PK2; copies: 2 + 2
B6: M103205H795-SG1 L234W/M103202L889-SK1 (antibody, human IgG1, kappa)
heavy: not shown
light: DIVMTQSPATLSLSPGERATLSCTSSQSVYHANWLSWFQQKPGQPPKLLIYWASTLAYGVPSRFSGSGSGTDFTLTISSLQPEDAATYYCAGGYGGGRYAFGQGTKVEIKRTVAAPSVFIFPPSDEQLKSGTASVVCLLNNFYPREAKVQWKVDNALQSGNSQESVTEQDSKDSTYSLSSTLTLSKADYEKHKVYACEVTHQGLSSPVTKSFNRGEC
notes: copies: 2 + 2
B7: M103205H795-SG1 L235W/M103202L889-SK1 (antibody, human IgG1, kappa)
heavy: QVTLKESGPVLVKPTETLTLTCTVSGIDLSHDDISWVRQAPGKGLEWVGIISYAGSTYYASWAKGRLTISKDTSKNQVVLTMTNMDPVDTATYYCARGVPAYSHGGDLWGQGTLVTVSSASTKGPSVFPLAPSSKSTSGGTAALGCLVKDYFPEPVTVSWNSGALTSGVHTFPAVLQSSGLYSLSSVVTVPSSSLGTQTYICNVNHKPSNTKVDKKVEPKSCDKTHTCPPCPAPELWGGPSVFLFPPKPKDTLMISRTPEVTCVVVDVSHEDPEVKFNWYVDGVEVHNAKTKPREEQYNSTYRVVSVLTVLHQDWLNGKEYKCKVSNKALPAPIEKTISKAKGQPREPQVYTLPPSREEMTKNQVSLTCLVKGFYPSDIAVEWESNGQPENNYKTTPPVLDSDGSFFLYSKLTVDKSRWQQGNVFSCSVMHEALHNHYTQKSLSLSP
light: DIVMTQSPATLSLSPGERATLSCTSSQSVYHANWLSWFQQKPGQPPKLLIYWASTLAYGVPSRFSGSGSGTDFTLTISSLQPEDAATYYCAGGYGGGRYAFGQGTKVEIKRTVAAPSVFIFPPSDEQLKSGTASVVCLLNNFYPREAKVQWKVDNALQSGNSQESVTEQDSKDSTYSLSSTLTLSKADYEKHKVYACEVTHQGLSSPVTKSFNRGEC
notes: copies: 2 + 2
B8: M103205H795-SG1 K326T/M103202L889-SK1 (antibody, human IgG1, kappa)
heavy: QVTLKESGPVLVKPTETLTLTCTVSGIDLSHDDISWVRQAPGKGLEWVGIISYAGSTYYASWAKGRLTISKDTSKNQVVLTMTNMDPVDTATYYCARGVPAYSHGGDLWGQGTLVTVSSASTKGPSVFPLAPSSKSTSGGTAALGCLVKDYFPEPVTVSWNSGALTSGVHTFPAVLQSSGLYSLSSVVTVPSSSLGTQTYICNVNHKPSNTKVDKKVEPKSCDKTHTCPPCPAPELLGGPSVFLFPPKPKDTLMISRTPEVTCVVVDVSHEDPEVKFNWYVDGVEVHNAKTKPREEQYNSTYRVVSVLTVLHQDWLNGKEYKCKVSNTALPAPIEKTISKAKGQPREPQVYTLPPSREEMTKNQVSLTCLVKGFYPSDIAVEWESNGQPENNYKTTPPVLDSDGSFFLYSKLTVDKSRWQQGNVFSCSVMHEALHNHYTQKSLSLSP
light: DIVMTQSPATLSLSPGERATLSCTSSQSVYHANWLSWFQQKPGQPPKLLIYWASTLAYGVPSRFSGSGSGTDFTLTISSLQPEDAATYYCAGGYGGGRYAFGQGTKVEIKRTVAAPSVFIFPPSDEQLKSGTASVVCLLNNFYPREAKVQWKVDNALQSGNSQESVTEQDSKDSTYSLSSTLTLSKADYEKHKVYACEVTHQGLSSPVTKSFNRGEC
notes: copies: 2 + 2
B9: M103205H795-SG1 I332D/M103202L889-SK1 (antibody, human IgG1, kappa)
heavy: not shown
light: DIVMTQSPATLSLSPGERATLSCTSSQSVYHANWLSWFQQKPGQPPKLLIYWASTLAYGVPSRFSGSGSGTDFTLTISSLQPEDAATYYCAGGYGGGRYAFGQGTKVEIKRTVAAPSVFIFPPSDEQLKSGTASVVCLLNNFYPREAKVQWKVDNALQSGNSQESVTEQDSKDSTYSLSSTLTLSKADYEKHKVYACEVTHQGLSSPVTKSFNRGEC
notes: copies: 2 + 2
B10: M103205H795-SG1 G236A/M103202L889-SK1 (antibody, human IgG1, kappa)
heavy: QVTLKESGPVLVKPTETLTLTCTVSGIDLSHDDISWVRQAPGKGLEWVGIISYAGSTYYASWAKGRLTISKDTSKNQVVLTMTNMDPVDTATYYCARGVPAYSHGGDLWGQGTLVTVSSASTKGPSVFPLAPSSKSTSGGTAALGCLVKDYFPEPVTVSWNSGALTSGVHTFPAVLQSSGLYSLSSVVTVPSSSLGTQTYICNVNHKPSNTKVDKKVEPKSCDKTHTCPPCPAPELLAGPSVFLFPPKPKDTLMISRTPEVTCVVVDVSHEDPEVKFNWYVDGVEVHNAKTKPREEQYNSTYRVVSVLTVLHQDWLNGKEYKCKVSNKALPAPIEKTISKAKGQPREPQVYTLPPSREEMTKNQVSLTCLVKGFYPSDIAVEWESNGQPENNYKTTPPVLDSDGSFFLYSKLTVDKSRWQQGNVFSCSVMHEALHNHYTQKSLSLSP
light: DIVMTQSPATLSLSPGERATLSCTSSQSVYHANWLSWFQQKPGQPPKLLIYWASTLAYGVPSRFSGSGSGTDFTLTISSLQPEDAATYYCAGGYGGGRYAFGQGTKVEIKRTVAAPSVFIFPPSDEQLKSGTASVVCLLNNFYPREAKVQWKVDNALQSGNSQESVTEQDSKDSTYSLSSTLTLSKADYEKHKVYACEVTHQGLSSPVTKSFNRGEC
notes: copies: 2 + 2
B11: M103205H795-SG1 P396M/M103202L889-SK1 (antibody, human IgG1, kappa)
heavy: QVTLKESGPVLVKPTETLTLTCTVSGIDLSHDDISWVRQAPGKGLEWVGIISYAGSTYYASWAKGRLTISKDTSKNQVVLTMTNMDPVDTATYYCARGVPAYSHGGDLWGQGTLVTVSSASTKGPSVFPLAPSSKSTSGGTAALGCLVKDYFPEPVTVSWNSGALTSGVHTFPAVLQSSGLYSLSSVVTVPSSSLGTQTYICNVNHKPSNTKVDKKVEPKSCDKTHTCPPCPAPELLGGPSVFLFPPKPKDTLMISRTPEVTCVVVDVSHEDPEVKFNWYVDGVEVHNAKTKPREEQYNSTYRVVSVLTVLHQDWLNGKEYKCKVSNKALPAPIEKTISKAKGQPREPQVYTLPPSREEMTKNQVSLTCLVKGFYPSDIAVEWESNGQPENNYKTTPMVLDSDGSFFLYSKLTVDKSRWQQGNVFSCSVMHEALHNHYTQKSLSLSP
light: DIVMTQSPATLSLSPGERATLSCTSSQSVYHANWLSWFQQKPGQPPKLLIYWASTLAYGVPSRFSGSGSGTDFTLTISSLQPEDAATYYCAGGYGGGRYAFGQGTKVEIKRTVAAPSVFIFPPSDEQLKSGTASVVCLLNNFYPREAKVQWKVDNALQSGNSQESVTEQDSKDSTYSLSSTLTLSKADYEKHKVYACEVTHQGLSSPVTKSFNRGEC
notes: copies: 2 + 2
B12: M103205H795-SG1 H268E/M103202L889-SK1 (antibody, human IgG1, kappa)
heavy: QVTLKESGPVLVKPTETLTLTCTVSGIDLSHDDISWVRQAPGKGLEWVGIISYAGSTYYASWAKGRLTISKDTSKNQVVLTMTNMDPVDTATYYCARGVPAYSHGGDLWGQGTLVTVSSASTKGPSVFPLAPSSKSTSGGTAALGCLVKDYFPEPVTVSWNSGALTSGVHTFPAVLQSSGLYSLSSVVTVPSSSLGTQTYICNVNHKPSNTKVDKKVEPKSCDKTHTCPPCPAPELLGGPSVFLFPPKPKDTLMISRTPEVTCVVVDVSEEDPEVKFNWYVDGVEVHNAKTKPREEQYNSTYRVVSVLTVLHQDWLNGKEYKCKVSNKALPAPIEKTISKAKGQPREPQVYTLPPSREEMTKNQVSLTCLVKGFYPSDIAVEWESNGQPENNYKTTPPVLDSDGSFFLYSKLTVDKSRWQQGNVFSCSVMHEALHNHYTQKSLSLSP
light: DIVMTQSPATLSLSPGERATLSCTSSQSVYHANWLSWFQQKPGQPPKLLIYWASTLAYGVPSRFSGSGSGTDFTLTISSLQPEDAATYYCAGGYGGGRYAFGQGTKVEIKRTVAAPSVFIFPPSDEQLKSGTASVVCLLNNFYPREAKVQWKVDNALQSGNSQESVTEQDSKDSTYSLSSTLTLSKADYEKHKVYACEVTHQGLSSPVTKSFNRGEC
notes: copies: 2 + 2
B13: M103205H795-SG1 K334V/M103202L889-SK1 (antibody, human IgG1, kappa)
heavy: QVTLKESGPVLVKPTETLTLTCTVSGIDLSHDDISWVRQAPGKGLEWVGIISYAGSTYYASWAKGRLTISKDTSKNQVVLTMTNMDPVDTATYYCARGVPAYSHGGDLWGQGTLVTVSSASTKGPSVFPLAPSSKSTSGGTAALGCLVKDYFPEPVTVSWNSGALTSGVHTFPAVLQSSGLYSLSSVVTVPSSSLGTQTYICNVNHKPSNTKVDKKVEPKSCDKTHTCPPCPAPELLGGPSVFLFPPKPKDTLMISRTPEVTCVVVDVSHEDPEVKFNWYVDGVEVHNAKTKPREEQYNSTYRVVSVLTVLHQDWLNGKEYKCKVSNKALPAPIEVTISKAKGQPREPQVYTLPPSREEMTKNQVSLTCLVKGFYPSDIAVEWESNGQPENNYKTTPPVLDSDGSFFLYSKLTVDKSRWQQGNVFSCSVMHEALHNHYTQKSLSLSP
light: DIVMTQSPATLSLSPGERATLSCTSSQSVYHANWLSWFQQKPGQPPKLLIYWASTLAYGVPSRFSGSGSGTDFTLTISSLQPEDAATYYCAGGYGGGRYAFGQGTKVEIKRTVAAPSVFIFPPSDEQLKSGTASVVCLLNNFYPREAKVQWKVDNALQSGNSQESVTEQDSKDSTYSLSSTLTLSKADYEKHKVYACEVTHQGLSSPVTKSFNRGEC
notes: copies: 2 + 2
B14: M103205H795-SG1 Q295L/M103202L889-SK1 (antibody, human IgG1, kappa)
heavy: not shown
light: DIVMTQSPATLSLSPGERATLSCTSSQSVYHANWLSWFQQKPGQPPKLLIYWASTLAYGVPSRFSGSGSGTDFTLTISSLQPEDAATYYCAGGYGGGRYAFGQGTKVEIKRTVAAPSVFIFPPSDEQLKSGTASVVCLLNNFYPREAKVQWKVDNALQSGNSQESVTEQDSKDSTYSLSSTLTLSKADYEKHKVYACEVTHQGLSSPVTKSFNRGEC
notes: copies: 2 + 2
B15: M103205H795-SG1 E233D/M103202L889-SK1 (antibody, human IgG1, kappa)
heavy: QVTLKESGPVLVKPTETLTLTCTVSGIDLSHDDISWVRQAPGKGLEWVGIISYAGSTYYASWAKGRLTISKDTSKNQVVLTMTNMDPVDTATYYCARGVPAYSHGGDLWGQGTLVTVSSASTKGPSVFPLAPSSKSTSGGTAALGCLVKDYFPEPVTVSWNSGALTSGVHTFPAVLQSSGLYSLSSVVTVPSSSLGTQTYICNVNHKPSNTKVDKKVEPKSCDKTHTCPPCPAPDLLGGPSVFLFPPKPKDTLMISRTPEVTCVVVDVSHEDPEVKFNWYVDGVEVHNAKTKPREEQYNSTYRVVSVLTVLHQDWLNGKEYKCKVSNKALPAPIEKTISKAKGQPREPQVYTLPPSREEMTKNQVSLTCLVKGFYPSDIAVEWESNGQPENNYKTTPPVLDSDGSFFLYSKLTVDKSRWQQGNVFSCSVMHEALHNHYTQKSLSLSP
light: DIVMTQSPATLSLSPGERATLSCTSSQSVYHANWLSWFQQKPGQPPKLLIYWASTLAYGVPSRFSGSGSGTDFTLTISSLQPEDAATYYCAGGYGGGRYAFGQGTKVEIKRTVAAPSVFIFPPSDEQLKSGTASVVCLLNNFYPREAKVQWKVDNALQSGNSQESVTEQDSKDSTYSLSSTLTLSKADYEKHKVYACEVTHQGLSSPVTKSFNRGEC
notes: copies: 2 + 2
B16: M103205H795-SG1 K334I/M103202L889-SK1 (antibody, human IgG1, kappa)
heavy: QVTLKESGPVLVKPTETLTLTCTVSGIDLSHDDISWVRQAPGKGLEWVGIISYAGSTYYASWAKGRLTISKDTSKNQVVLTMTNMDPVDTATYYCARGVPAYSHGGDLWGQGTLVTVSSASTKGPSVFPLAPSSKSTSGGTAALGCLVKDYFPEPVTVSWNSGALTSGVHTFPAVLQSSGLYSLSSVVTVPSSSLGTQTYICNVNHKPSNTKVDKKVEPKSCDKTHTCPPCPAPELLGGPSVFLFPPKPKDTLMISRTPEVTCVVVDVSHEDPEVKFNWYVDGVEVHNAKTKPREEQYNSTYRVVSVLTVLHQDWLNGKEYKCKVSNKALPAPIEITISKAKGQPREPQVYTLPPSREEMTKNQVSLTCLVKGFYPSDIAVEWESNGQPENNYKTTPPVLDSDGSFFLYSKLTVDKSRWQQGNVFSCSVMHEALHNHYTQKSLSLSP
light: DIVMTQSPATLSLSPGERATLSCTSSQSVYHANWLSWFQQKPGQPPKLLIYWASTLAYGVPSRFSGSGSGTDFTLTISSLQPEDAATYYCAGGYGGGRYAFGQGTKVEIKRTVAAPSVFIFPPSDEQLKSGTASVVCLLNNFYPREAKVQWKVDNALQSGNSQESVTEQDSKDSTYSLSSTLTLSKADYEKHKVYACEVTHQGLSSPVTKSFNRGEC
notes: copies: 2 + 2
B17: MS103205H795-MY351/M103202L889-SK1 (antibody)
heavy: QVTLKESGPVLVKPTETLTLTCTVSGIDLSHDDISWVRQAPGKGLEWVGIISYAGSTYYASWAKGRLTISKDTSKNQVVLTMTNMDPVDTATYYCARGVPAYSHGGDLWGQGTLVTVSSASTKGPSVFPLAPSSKSTSGGTAALGCLVKDYFPEPVTVSWNSGALTSGVHTFPAVLQSSGLYSLSSVVTVPSSSLGTQTYICNVNHKPSNTKVDKKVEPKSCDKTHTCPPCPAPELLNGPSVFLFPPKPKDTLMISRTPEVTCVVVDVSDEDPEVKFNWYVDGVEVHNAKTKPREEQYNSTYRVVSVLTVLHRDWLNGKEYKCKVSNKALPKPIEKTISKAKGQPREPQVYTLPPSREEMTKNQVSLTCLVKGFYPSDIAVEWESNGQPENNYKTTPPVLDSDGSFFLYSKLTVKKSRWQQGNVFSCSVMHEALHNHYTQKSLSLSP
light: DIVMTQSPATLSLSPGERATLSCTSSQSVYHANWLSWFQQKPGQPPKLLIYWASTLAYGVPSRFSGSGSGTDFTLTISSLQPEDAATYYCAGGYGGGRYAFGQGTKVEIKRTVAAPSVFIFPPSDEQLKSGTASVVCLLNNFYPREAKVQWKVDNALQSGNSQESVTEQDSKDSTYSLSSTLTLSKADYEKHKVYACEVTHQGLSSPVTKSFNRGEC
notes: also called MS1032LO06-MY351; copies: 2 + 2

Experiments:
[1] = biological target: T1, human Fc gamma RIIb extracellular …; experiment: SPR 25C
[2] = biological target: T2, cyno Fc gamma RIIb extracellular …; experiment: SPR 25C

Binder | binding result [1] | binding result [2] | KD fold vs SG1 [1] [fold]
B1 | binds | binds | 
B2 | binds | binds | 
B3 | binds | binds | 
B4 | binds | binds | 
B5 |  |  | 8
B6 | binds | binds | 
B7 | binds | binds | 
B8 | binds | binds | 
B9 | binds | binds | 
B10 | binds | binds | 
B11 | binds | binds | 
B12 | binds | binds | 
B13 | binds | binds | 
B14 | binds | binds | 
B15 | binds | binds | 
B16 | binds | binds | 
B17 |  |  | 5
